{
  "source": "the RNAGym collection of RNA variant scans (doi:10.7554/elife.80360)",
  "parents": {"B1": {"name": "HDV Ribozyme (parent)", "chain": "GGCCGGCAUGGUCCCAGCCUCCUCGCUGGCGCCGGCUGGGCAACAUUCCGAGGGGACCGUCCCCUCGGUAAUGGCGAAUGGGACCCA"}},
  "data": [
    {"variants_of": "B1", "assay": "self-cleavage, relative activity (ratio to wild type); higher = more cleavage; co-transcriptional", "values": [
      {"variant": "GGCCGGCAUGGUCCCAGCCUCCUCGCUGGCGCCGGCUGGGCAACAUUCCGAAGGGACCGUCACCUCGGUAAUGGCGAAUGGGACCCA", "self-cleavage": 0.732},
      {"variant": "GGCCGGCAUGGUCCCAGCCUCCUCGCUGGCGCCGGCUGGGCAACAUUCCGAAGGGACCGUCUCCUCGGUAAUGGCGAAUGGGACCCA", "self-cleavage": 1.12},
      {"variant": "GGCCGGCAUGGUCCCAGCCUCCUCGCUGGCGCCGGCUGGGCAACAUUCCGUGGGGACGGUCCCCUCGGUAAUGGCGAAUGGGACCCA", "self-cleavage": 0.997},
      {"variant": "GGCCGGCAUGGUCCCAGCCUCCUCGCUGGCGCCGGCUGGGCAACAUUCCGUGGGGACAGUCCCCUCGGUAAUGGCGAAUGGGACCCA", "self-cleavage": 1.04},
      {"variant": "GGCCGGCAUGGUCCCAGCCUCCUCGCUGGCGCCGGCUGGGCAACAUUCCGAAGGGACCGUCCCCUCGGUAAUGGCGAAUGGGAACCA", "self-cleavage": 0.736},
      {"variant": "GGCCGGCAUGGUCCCAGCCUCCUCGCUGGCGCCGGCUGGGCAACAUUCCGUGGGGUCCGUCCCCUCGGUAAUGGCGAAUGGGACCCA", "self-cleavage": 1.25},
      {"variant": "GGCCGGCAUGGUCCCAGCCUCCUCGCUGGCGCCGGCUGGGCAACAUUCCGGGGGGACCGUCCCCUCGGUAAGGGCGAAUGGGACCCA", "self-cleavage": 0.615},
      {"variant": "GGCCGGCAUGGUCCCAGCCUCCUCGCUGGCGCCGGCUGGGCAACAUUCCGUGGGGACCGUCCCCUCGGUAAUGGCGGAUGGGACCCA", "self-cleavage": 0.615},
      {"variant": "GGCCGGCAUGGUCCCAGCCUCCUCGCUGGCGCCGGCUGGGCAACAUUCCGAAGGGUCCGUCCCCUCGGUAAUGGCGAAUGGGACCCA", "self-cleavage": 1.1},
      {"variant": "GGCCGGCAUGGUCCCAGCCUCCUCGCUGGCGCCGGCUGGGCAACAUUCCGUGGGGACCGUCCCCUCGGUAAUGGCGAUUGGGACCCA", "self-cleavage": 0.282},
      {"variant": "GGCCGGCAUGGUCCCAGCCUCCUCGCUGGCGCCGGCUGGGCAACAUUCCGAAGGGACCGUGCCCUCGGUAAUGGCGAAUGGGACCCA", "self-cleavage": 0.897},
      {"variant": "GGCCGGCAUGGUCCCAGCCUCCUCGCUGGCGCCGGCUGGGCAACAUUCCGAAGGGACCGUCCCCUCGGUAAUGGCUAAUGGGACCCA", "self-cleavage": 0.983},
      {"variant": "GGCCGGCAUGGUCCCAGCCUCCUCGCUGGCGCCGGCUGGGCAACAUUCCGUGGGGACCGUCCCCUCCGUAAUGGCGAAUGGGACCCA", "self-cleavage": 0.78},
      {"variant": "GGCCGGCAUGGUCCCAGCCUCCUCGCUGGCGCCGGCUGGGCAACAUUCCGAAGGGACCGUCCACUCGGUAAUGGCGAAUGGGACCCA", "self-cleavage": 0.774},
      {"variant": "GGCCGGCAUGGUCCCAGCCUCCUCGCUGGCGCCGGCUGGGCAACAUUCCGUGGGGACCGUCCGCUCGGUAAUGGCGAAUGGGACCCA", "self-cleavage": 0.208},
      {"variant": "GGCCGGCAUGGUCCCAGCCUCCUCGCUGGCGCCGGCUGGGCAACAUUCCGAAGGGACCGUCCCCUCGGUGAUGGCGAAUGGGACCCA", "self-cleavage": 1.02},
      {"variant": "GGCCGGCAUGGUCCCAGCCUCCUCGCUGGCGCCGGCUGGGCAACAUUCCGAAGGGACCGUCCCCUCGGUAAUGGCGAAUGGGACCCG", "self-cleavage": 0.86},
      {"variant": "GGCCGGCAUGGUCCCAGCCUCCUCGCUGGCGCCGGCUGGGCAACAUUCCGUGGGCACCGUCCCCUCGGUAAUGGCGAAUGGGACCCA", "self-cleavage": 1.01},
      {"variant": "GGCCGGCAUGGUCCCAGCCUCCUCGCUGGCGCCGGCUGGGCAACAUUCCGUGGGAACCGUCCCCUCGGUAAUGGCGAAUGGGACCCA", "self-cleavage": 1.17},
      {"variant": "GGCCGGCAUGGUCCCAGCCUCCUCGCUGGCGCCGGCUGGGCAACAUUCCGAAGGGACCGUCCCCUCGGUAAUGGCGAAUGCGACCCA", "self-cleavage": 0.259},
      {"variant": "GGCCGGCAUGGUCCCAGCCUCCUCGCUGGCGCCGGCUGGGCAACAUUCCGUGGGGACCGUCCCCUCGGUAAUGCCGAAUGGGACCCA", "self-cleavage": 0.243},
      {"variant": "GGCCGGCAUGGUCCCAGCCUCCUCGCUGGCGCCGGCUGGGCAACAUUCCGUGGGGACCGUCCCCUCGGUAAUGUCGAAUGGGACCCA", "self-cleavage": 0.369},
      {"variant": "GGCCGGCAUGGUCCCAGCCUCCUCGCUGGCGCCGGCUGGGCAACAUUCCGAAGGGACCGUCCCCUCGUUAAUGGCGAAUGGGACCCA", "self-cleavage": 0.591},
      {"variant": "GGCCGGCAUGGUCCCAGCCUCCUCGCUGGCGCCGGCUGGGCAACAUUCCGAAGGGACCGUCCCCUCGCUAAUGGCGAAUGGGACCCA", "self-cleavage": 0.436},
      {"variant": "GGCCGGCAUGGUCCCAGCCUCCUCGCUGGCGCCGGCUGGGCAACAUUCCGUGGGGACCGCCCCCUCGGUAAUGGCGAAUGGGACCCA", "self-cleavage": 0.594},
      {"variant": "GGCCGGCAUGGUCCCAGCCUCCUCGCUGGCGCCGGCUGGGCAACAUUCCGUGGGGACCGGCCCCUCGGUAAUGGCGAAUGGGACCCA", "self-cleavage": 1.04},
      {"variant": "GGCCGGCAUGGUCCCAGCCUCCUCGCUGGCGCCGGCUGGGCAACAUUCCGAAGGGACCGUCCCCUCUGUAAUGGCGAAUGGGACCCA", "self-cleavage": 0.843},
      {"variant": "GGCCGGCAUGGUCCCAGCCUCCUCGCUGGCGCCGGCUGGGCAACAUUCCGUGGGGACCGUCCCCUCGGCAAUGGCGAAUGGGACCCA", "self-cleavage": 1.26},
      {"variant": "GGCCGGCAUGGUCCCAGCCUCCUCGCUGGCGCCGGCUGGGCAACAUUCCGUGGGGACCGUCCCCUCGGUAAUGGCGAAUGAGACCCA", "self-cleavage": 0.601},
      {"variant": "GGCCGGCAUGGUCCCAGCCUCCUCGCUGGCGCCGGCUGGGCAACAUUCCGAAGGGACCGUCCCCUAGGUAAUGGCGAAUGGGACCCA", "self-cleavage": 1.09},
      {"variant": "GGCCGGCAUGGUCCCAGCCUCCUCGCUGGCGCCGGCUGGGCAACAUUCCGAAGCGACCGUCCCCUCGGUAAUGGCGAAUGGGACCCA", "self-cleavage": 0.842},
      {"variant": "GGCCGGCAUGGUCCCAGCCUCCUCGCUGGCGCCGGCUGGGCAACAUUCCGUGGGGACCAUCCCCUCGGUAAUGGCGAAUGGGACCCA", "self-cleavage": 0.889}
    ]}
  ]
}
